We go through one molecule from patent US20170260257A1.

The target of this test is BSA (UniProt P02769). The experiment in a line: sandwich ELISA: plate coated with the antibody, BSA as negative sample, detection with sheep anti-HBsAg/peroxidase. Background: ELISA stands for enzyme-linked immunosorbent assay.

Values joined by “and” are separate entries in the source; they are usually repeats but may differ in a detail not shown here. Identical values can stand only once.

Chain of BSA (P02769 25-607 limits assumed): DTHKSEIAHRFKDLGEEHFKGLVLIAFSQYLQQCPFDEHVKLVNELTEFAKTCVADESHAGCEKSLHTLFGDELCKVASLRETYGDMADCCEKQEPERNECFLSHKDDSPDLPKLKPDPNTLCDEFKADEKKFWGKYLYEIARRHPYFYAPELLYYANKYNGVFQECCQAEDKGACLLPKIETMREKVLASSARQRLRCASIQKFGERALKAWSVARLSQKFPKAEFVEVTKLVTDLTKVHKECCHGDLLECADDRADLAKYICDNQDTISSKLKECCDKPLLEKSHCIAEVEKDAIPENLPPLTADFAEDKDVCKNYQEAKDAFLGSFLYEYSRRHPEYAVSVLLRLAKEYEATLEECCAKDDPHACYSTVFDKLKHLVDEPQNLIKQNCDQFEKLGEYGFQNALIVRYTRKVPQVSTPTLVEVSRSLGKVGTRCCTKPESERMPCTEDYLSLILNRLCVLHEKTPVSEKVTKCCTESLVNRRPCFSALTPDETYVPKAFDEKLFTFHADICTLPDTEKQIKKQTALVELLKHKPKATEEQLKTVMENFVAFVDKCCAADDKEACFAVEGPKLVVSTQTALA

B1: the antibody of the present invention comprising a heavy-chain variable region having amino acid sequence of SEQ ID NO: 2 and a light-chain variable region … (antibody, V domains shown)
VH: EVQLVESGGGLVKPGGSLRLSCSASGFSLTKYKMTWVRQAPGKGLEWVSSISSTSRDIDYADSVKGRFTISRDNAKNSLFLQMSSLRVDDTAVYYCTRDGWLWGWDVRSNYYYNALDVWGQGTTVTVSS
VL: DIVVTQSPSSLSASVGDRVTITCRASQGIYNSIAWYQQKPGKAPKLLLYSTSTLLSGVPSRFSGSGSGTDYTLTITNLQPEDFATYYCQQYFVTPETFGQGTKLEIKR
For B1, the A450 is 0.251 A450 and 0.263 A450.
